The values below come from patent US20040039175, “Modulation of viral gene expression by engineered zinc finger proteins” (published 2004).

Bounds are passed on as bounds.

Data set [1] deals with T1, 6F6 (7N-4/3 six-finger) (synthetic construct). The experiment in a line: EMSA; almost no affinity; 11 mismatches. The conditions noted are these: tags: Promega TNT; label: radiolabel. On the technique in general: A gel shift assay detects complexes by their altered migration in electrophoresis.
The next data set concerns the target HIV-D (synthetic construct). The experiment in a line: ELONA; apparent Kd, phage ELISA, Zn2+. The conditions noted are these: protein: virion; label: biotin. (In general: In an ELISA, binding on a coated surface is turned into a signal by an enzyme label.)
The target in a further data set is HIV-G (synthetic construct). The experiment in a line: ELONA; apparent Kd, phage ELISA, Zn2+. The settings on record: protein: virion; label: biotin.
In data set [2] the target is T1, 6F6 (7N-4/3 six-finger). The experiment in a line: EMSA; almost no affinity; 3 mismatches. The settings on record: tags: Promega TNT; label: radiolabel.
The target of data set [3] is T2, 7N (synthetic construct). The experiment in a line: EMSA; intact t2 site. The settings on record: tags: Promega TNT; label: radiolabel.
The target of the next data set is HIV-E (synthetic construct). The experiment in a line: ELONA; apparent Kd, phage ELISA; F3 subsite printed differently in original table. The settings on record: protein: virion; label: biotin.
For data set [4], the target named is T2, 7N. The experiment in a line: ELONA; apparent Kd comparable with Zif268, weakest of the three; phage ELISA. The conditions noted are these: protein: virion.
The target of the next data set is HIV-F (synthetic construct). The experiment in a line: ELONA; apparent Kd, phage ELISA, Zn2+. The settings on record: protein: virion; label: biotin.
Data set [5] deals with T2, 7N. The experiment in a line: EMSA; roughly similar apparent Kd to 4/3. The conditions noted are these: tags: Promega TNT; label: radiolabel.
The target of data set [6] is T1, 6F6 (7N-4/3 six-finger). The experiment in a line: EMSA; affinity relative to 4/3 or 7N alone. The conditions noted are these: tags: Promega TNT; label: radiolabel.
Data set [7] deals with T1, 6F6 (7N-4/3 six-finger). The experiment in a line: EMSA; almost no affinity; 8 mismatches. The settings on record: tags: Promega TNT; label: radiolabel.
In data set [8] the target is T2, 7N. The experiment in a line: EMSA. The settings on record: tags: Promega TNT; label: radiolabel.
A further data set addresses HIV-C (synthetic construct). The experiment in a line: ELONA; apparent Kd, phage ELISA, Zn2+. The settings on record: protein: virion; label: biotin.

T1 sequence (chain, as listed by the source): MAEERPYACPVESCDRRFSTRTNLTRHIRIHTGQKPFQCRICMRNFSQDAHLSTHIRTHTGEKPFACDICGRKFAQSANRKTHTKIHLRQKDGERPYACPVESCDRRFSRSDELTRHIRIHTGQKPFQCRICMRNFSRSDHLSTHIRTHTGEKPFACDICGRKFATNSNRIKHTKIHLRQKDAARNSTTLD

B1: H2B probe (dsDNA)
DNA 1: ATAGAATCGCTTATGCAAATAAGGTGAAGA
DNA 2: TCTTCACCTTATTTGCATAAGCGATTCTAT
Turning to B1, the binding result with 6F6 (7N-4/3 six-finger) [1] was “no binding”.

B2: HIV-D site (dsDNA)
DNA 1: GCAGCTGCTT
DNA 2: AAGCAGCTGC
For B2, the Kd in the data set with HIV-D was 4 nM.

B3: HIV-G site (dsDNA)
DNA 1: GCTAACTAGG
DNA 2: CCTAGTTAGC
As for B3, the Kd with HIV-G turned out to be 40.3 nM.

B4: 68K probe (dsDNA)
DNA 1: CTTCCCGGTTCGGCGGTAATGAGATACGAG
DNA 2: CTCGTATCTCATTACCGCCGAACCGGGAAG
B4: the binding result in the data set with 6F6 (7N-4/3 six-finger) [2] is “no binding”; with 7N [3] it was “binds”.

B5: HIV-E site (dsDNA)
DNA 1: ATCTGAGCCT
DNA 2: AGGCTCAGAT
As for B5, the Kd with HIV-E came out at 36.6 nM.

B6: t2 (dsDNA)
DNA 1: TAATGAGAT
DNA 2: ATCTCATTA
Turning to B6, the Kd with 7N [4] is approximately 1 nM.

B7: HIV-F site (dsDNA)
DNA 1: GGAGCTCTCT
DNA 2: AGAGAGCTCC
As to B7, the Kd in the data set with HIV-F is 13.3 nM.

B8: T24 probe (dsDNA)
DNA 1: CCGCCGGATCGGGCGGTAATGAGATGCCATG
DNA 2: CATGGCATCTCATTACCGCCCGATCCGGCGG
On to B8, for which the binding result with 7N [5] was “binds”. Further, in the data set with 6F6 (7N-4/3 six-finger) [6], the binding signal is not below 25 fold.

B9: IE110 probe (dsDNA)
DNA 1: TGGGTTCCGGGTATGGTAATGAGTTTCTTC
DNA 2: GAAGAAACTCATTACCATACCCGGAACCCA
As for B9, the binding result with 6F6 (7N-4/3 six-finger) [7] is recorded as “no binding”; with 7N [8], “binds”.

B10: HIV-C site (dsDNA)
DNA 1: GATGCTGCAT
DNA 2: ATGCAGCATC
In the case of B10, the Kd with HIV-C stood at 13.7 nM.
